{"source": "the Human Domainome abundance scans (Beltran et al. 2025)", "parents": {"B1": {"name": "Far upstream element-binding protein 2, residues 142 to 214; numbered along this chain, Q92945 (parent)", "chain": "RTSMTEEYRVPDGMVGLIIGRGGEQINKIQQDSGCKVQISPDSGGLPERSVSLTGAPESVQKAKMMLDDIVSR"}}, "note": "± gives the uncertainty stated by the source."}
{"variants_of": "B1", "test": "abundance fitness (aPCA) (normalised: wild type 0, dead -1); higher = more abundant; growth selection in yeast, the domain comes from the species named", "details": "Homo sapiens"}
{"variant": "RTSMTEEYRNPDGMVGLIIGRGGEQINKIQQDSGCKVQISPDSGGLPERSVSLTGAPESVQKAKMMLDDIVSR", "note": "[V10N]", "abundance fitness": "-0.567 ± 0.081"}
{"variant": "RTSMTEEYRWPDGMVGLIIGRGGEQINKIQQDSGCKVQISPDSGGLPERSVSLTGAPESVQKAKMMLDDIVSR", "note": "[V10W]", "abundance fitness": "-0.726 ± 0.073"}
{"variant": "RTSMTEEYRKPDGMVGLIIGRGGEQINKIQQDSGCKVQISPDSGGLPERSVSLTGAPESVQKAKMMLDDIVSR", "note": "[V10K]", "abundance fitness": "-0.603 ± 0.067"}
{"variant": "RTSMTEEYRIPDGMVGLIIGRGGEQINKIQQDSGCKVQISPDSGGLPERSVSLTGAPESVQKAKMMLDDIVSR", "note": "[V10I]", "abundance fitness": "-0.02 ± 0.062"}
{"variant": "RTSMTEEYREPDGMVGLIIGRGGEQINKIQQDSGCKVQISPDSGGLPERSVSLTGAPESVQKAKMMLDDIVSR", "note": "[V10E]", "abundance fitness": "-0.456 ± 0.051"}
{"variant": "RTSMTEEYRRPDGMVGLIIGRGGEQINKIQQDSGCKVQISPDSGGLPERSVSLTGAPESVQKAKMMLDDIVSR", "note": "[V10R]", "abundance fitness": "-0.741 ± 0.044"}
{"variant": "RTSMTEEYRLPDGMVGLIIGRGGEQINKIQQDSGCKVQISPDSGGLPERSVSLTGAPESVQKAKMMLDDIVSR", "note": "[V10L]", "abundance fitness": "0.068 ± 0.041"}
{"variant": "RTSMTEEYRMPDGMVGLIIGRGGEQINKIQQDSGCKVQISPDSGGLPERSVSLTGAPESVQKAKMMLDDIVSR", "note": "[V10M]", "abundance fitness": "0.041 ± 0.058"}
{"variant": "RTSMTEEYRDPDGMVGLIIGRGGEQINKIQQDSGCKVQISPDSGGLPERSVSLTGAPESVQKAKMMLDDIVSR", "note": "[V10D]", "abundance fitness": "-0.467 ± 0.064"}
{"variant": "RTSMTEEYRFPDGMVGLIIGRGGEQINKIQQDSGCKVQISPDSGGLPERSVSLTGAPESVQKAKMMLDDIVSR", "note": "[V10F]", "abundance fitness": "-0.132 ± 0.072"}
{"variant": "RTSMTEEYRPPDGMVGLIIGRGGEQINKIQQDSGCKVQISPDSGGLPERSVSLTGAPESVQKAKMMLDDIVSR", "note": "[V10P]", "abundance fitness": "-0.456 ± 0.059"}
{"variant": "RTSMTEEYRTPDGMVGLIIGRGGEQINKIQQDSGCKVQISPDSGGLPERSVSLTGAPESVQKAKMMLDDIVSR", "note": "[V10T]", "abundance fitness": "-0.464 ± 0.051"}
{"variant": "RTSMTEEYRYPDGMVGLIIGRGGEQINKIQQDSGCKVQISPDSGGLPERSVSLTGAPESVQKAKMMLDDIVSR", "note": "[V10Y]", "abundance fitness": "-0.224 ± 0.077"}
{"variant": "RTSMTEEYRSPDGMVGLIIGRGGEQINKIQQDSGCKVQISPDSGGLPERSVSLTGAPESVQKAKMMLDDIVSR", "note": "[V10S]", "abundance fitness": "-0.628 ± 0.047"}
{"variant": "RTSMTEEYRQPDGMVGLIIGRGGEQINKIQQDSGCKVQISPDSGGLPERSVSLTGAPESVQKAKMMLDDIVSR", "note": "[V10Q]", "abundance fitness": "-0.709 ± 0.062"}
{"variant": "RTSMTEEYRVQDGMVGLIIGRGGEQINKIQQDSGCKVQISPDSGGLPERSVSLTGAPESVQKAKMMLDDIVSR", "note": "[P11Q]", "abundance fitness": "-0.221 ± 0.058"}
{"variant": "RTSMTEEYRVYDGMVGLIIGRGGEQINKIQQDSGCKVQISPDSGGLPERSVSLTGAPESVQKAKMMLDDIVSR", "note": "[P11Y]", "abundance fitness": "-0.712 ± 0.11"}
{"variant": "RTSMTEEYRVTDGMVGLIIGRGGEQINKIQQDSGCKVQISPDSGGLPERSVSLTGAPESVQKAKMMLDDIVSR", "note": "[P11T]", "abundance fitness": "-0.158 ± 0.056"}
{"variant": "RTSMTEEYRVVDGMVGLIIGRGGEQINKIQQDSGCKVQISPDSGGLPERSVSLTGAPESVQKAKMMLDDIVSR", "note": "[P11V]", "abundance fitness": "-0.425 ± 0.052"}
{"variant": "RTSMTEEYRVHDGMVGLIIGRGGEQINKIQQDSGCKVQISPDSGGLPERSVSLTGAPESVQKAKMMLDDIVSR", "note": "[P11H]", "abundance fitness": "-0.536 ± 0.089"}
{"variant": "RTSMTEEYRVWDGMVGLIIGRGGEQINKIQQDSGCKVQISPDSGGLPERSVSLTGAPESVQKAKMMLDDIVSR", "note": "[P11W]", "abundance fitness": "-0.765 ± 0.069"}
{"variant": "RTSMTEEYRVADGMVGLIIGRGGEQINKIQQDSGCKVQISPDSGGLPERSVSLTGAPESVQKAKMMLDDIVSR", "note": "[P11A]", "abundance fitness": "-0.131 ± 0.047"}
{"variant": "RTSMTEEYRVEDGMVGLIIGRGGEQINKIQQDSGCKVQISPDSGGLPERSVSLTGAPESVQKAKMMLDDIVSR", "note": "[P11E]", "abundance fitness": "-0.193 ± 0.056"}
{"variant": "RTSMTEEYRVKDGMVGLIIGRGGEQINKIQQDSGCKVQISPDSGGLPERSVSLTGAPESVQKAKMMLDDIVSR", "note": "[P11K]", "abundance fitness": "-0.178 ± 0.06"}
{"variant": "RTSMTEEYRVIDGMVGLIIGRGGEQINKIQQDSGCKVQISPDSGGLPERSVSLTGAPESVQKAKMMLDDIVSR", "note": "[P11I]", "abundance fitness": "-0.277 ± 0.1"}
{"variant": "RTSMTEEYRVMDGMVGLIIGRGGEQINKIQQDSGCKVQISPDSGGLPERSVSLTGAPESVQKAKMMLDDIVSR", "note": "[P11M]", "abundance fitness": "-0.375 ± 0.064"}
{"variant": "RTSMTEEYRVDDGMVGLIIGRGGEQINKIQQDSGCKVQISPDSGGLPERSVSLTGAPESVQKAKMMLDDIVSR", "note": "[P11D]", "abundance fitness": "-0.122 ± 0.061"}
{"variant": "RTSMTEEYRVNDGMVGLIIGRGGEQINKIQQDSGCKVQISPDSGGLPERSVSLTGAPESVQKAKMMLDDIVSR", "note": "[P11N]", "abundance fitness": "-0.371 ± 0.069"}
{"variant": "RTSMTEEYRVRDGMVGLIIGRGGEQINKIQQDSGCKVQISPDSGGLPERSVSLTGAPESVQKAKMMLDDIVSR", "note": "[P11R]", "abundance fitness": "-0.299 ± 0.041"}
{"variant": "RTSMTEEYRVFDGMVGLIIGRGGEQINKIQQDSGCKVQISPDSGGLPERSVSLTGAPESVQKAKMMLDDIVSR", "note": "[P11F]", "abundance fitness": "-1.07 ± 0.16"}
{"variant": "RTSMTEEYRVLDGMVGLIIGRGGEQINKIQQDSGCKVQISPDSGGLPERSVSLTGAPESVQKAKMMLDDIVSR", "note": "[P11L]", "abundance fitness": "-0.362 ± 0.048"}
{"variant": "RTSMTEEYRVGDGMVGLIIGRGGEQINKIQQDSGCKVQISPDSGGLPERSVSLTGAPESVQKAKMMLDDIVSR", "note": "[P11G]", "abundance fitness": "-0.472 ± 0.048"}
{"variant": "RTSMTEEYRVPIGMVGLIIGRGGEQINKIQQDSGCKVQISPDSGGLPERSVSLTGAPESVQKAKMMLDDIVSR", "note": "[D12I]", "abundance fitness": "0.041 ± 0.095"}
{"variant": "RTSMTEEYRVPGGMVGLIIGRGGEQINKIQQDSGCKVQISPDSGGLPERSVSLTGAPESVQKAKMMLDDIVSR", "note": "[D12G]", "abundance fitness": "-0.04 ± 0.047"}
{"variant": "RTSMTEEYRVPHGMVGLIIGRGGEQINKIQQDSGCKVQISPDSGGLPERSVSLTGAPESVQKAKMMLDDIVSR", "note": "[D12H]", "abundance fitness": "0.013 ± 0.076"}
{"variant": "RTSMTEEYRVPEGMVGLIIGRGGEQINKIQQDSGCKVQISPDSGGLPERSVSLTGAPESVQKAKMMLDDIVSR", "note": "[D12E]", "abundance fitness": "-0.003 ± 0.055"}
{"variant": "RTSMTEEYRVPFGMVGLIIGRGGEQINKIQQDSGCKVQISPDSGGLPERSVSLTGAPESVQKAKMMLDDIVSR", "note": "[D12F]", "abundance fitness": "-0.153 ± 0.075"}
{"variant": "RTSMTEEYRVPCGMVGLIIGRGGEQINKIQQDSGCKVQISPDSGGLPERSVSLTGAPESVQKAKMMLDDIVSR", "note": "[D12C]", "abundance fitness": "-0.175 ± 0.071"}
